We go through one substance from US20040038205A1.

The target in this test is natural cellular receptor for the adenoviral fiber on 293 cells (human (293 human line)) (UniProt P78310). Description: cell-based or functional assay.
UniProt P78310, sequence (P78310 20-365): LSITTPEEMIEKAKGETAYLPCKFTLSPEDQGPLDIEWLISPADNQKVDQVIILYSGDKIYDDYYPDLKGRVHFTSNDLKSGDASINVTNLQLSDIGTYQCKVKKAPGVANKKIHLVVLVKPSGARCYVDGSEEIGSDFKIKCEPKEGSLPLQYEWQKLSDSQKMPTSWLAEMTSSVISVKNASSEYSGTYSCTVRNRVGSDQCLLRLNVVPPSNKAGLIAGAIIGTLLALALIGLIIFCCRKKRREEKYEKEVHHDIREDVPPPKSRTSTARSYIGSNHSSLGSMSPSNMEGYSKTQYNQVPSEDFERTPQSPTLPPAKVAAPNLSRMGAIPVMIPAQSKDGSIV

As for “native Ad5 fiber carried by the recombinant virus AdLacZ (from UniProt P11818 1-581)”, the degree of inhibition of infection of 293 cells with AdLacZ by recombinant Ad5 knob at 100 µg/ml (LacZ-positive cells) stood at 95%.
